# Laboratory results published in PMC5454392, “Selective BET bromodomain inhibition as an antifungal therapeutic strategy” (Nature Communications, 2017).
# Numbered stars: 1 amine (or outer) side, 2 acyl side, 3 side chain; on linkers, the order of the positions; unused ones are H or OH. Square brackets hold non-standard residues; d marks the D form. Ends that are not written are not given here. Arg(Me2a) = CN(C)C(=N)NCCC[C@H](N)C(=O)O; Kac = CC(=O)NCCCC[C@H](N[*:1])C(=O)[*:2]; Lys(Me3) = C[N+](C)(C)CCCC[C@H](N)C(=O)O; Arg(Me2s) = CN=C(NC)NCCC[C@H](N)C(=O)O; pT = C[C@@H](OP(=O)(O)O)[C@H](N)C(=O)O; Lys(Me2) = CN(C)CCCC[C@H](N)C(=O)O; pS = N[C@@H](COP(=O)(O)O)C(=O)O; Me2a = not defined here; me2a = not defined here
# T1: CaBdf1 BD2 (GST-tagged, wild-type) (Candida albicans (strain SC5314 / ATCC …, UniProt Q5A4W8))
# T1 chain: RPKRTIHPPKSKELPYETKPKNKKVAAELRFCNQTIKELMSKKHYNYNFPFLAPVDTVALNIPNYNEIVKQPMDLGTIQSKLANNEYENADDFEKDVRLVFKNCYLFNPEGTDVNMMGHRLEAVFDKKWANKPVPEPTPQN
# T2: CaBdf1 BD1 (GST-tagged, wild-type) (Candida albicans (strain SC5314 / ATCC …, UniProt Q5A4W8))
# T2 chain: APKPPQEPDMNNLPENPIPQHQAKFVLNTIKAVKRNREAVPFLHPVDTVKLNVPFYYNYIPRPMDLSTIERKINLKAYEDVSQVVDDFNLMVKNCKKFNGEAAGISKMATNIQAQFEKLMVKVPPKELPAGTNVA
# Molecular target: T1, CaBdf1 BD2 (GST-tagged, wild-type)
# Assay: histone peptide array (Active Motif MODified), 1 uM GST-tagged bromodomain, anti-GST detection, normalized mean intensity
row,Binder,binding score
1,ART[Kac]QTA[Arg(Me2a)][Lys(Me2)]STGGKAPRKQ,0.00555
2,PRKQLATKAARKSAPATGG (P R K Q L A T K A A Rme2a Kme2 S A P A T G G),0.00555
3,ARTKQTARKSTGGKAPRKQ (A R T K Q T A R Kme3 S T G G K A P R K Q),0.00222
4,PDPAK(Ac)SAPAPKKGSK(Ac)KAVT,0.00962
5,ARTK(Me)QTAR(me2a)K(Me)STGGKAPRKQ (reading uncertain),0.00407
6,SGRGKGGKGLGKGGAKRHR (pS G Rme2s G Kac G G Kac G L G K G G A K R H R),0.0352
7,PDPAK(Ac)SAPAPKK(Ac)G[pS]K(Ac)KAVT,0.232
8,ARTKQTARKSTGGKAPRKQ (A Rme2s T Kme2 Q T A Rme2s K S T G G K A P R K Q),0.00629
9,ARTKQTARKSTGGKAPRKQ (A Rme2a T Kme1 Q T A Rme2s Kme2 S T G G K A P R K Q),0.00222
10,ARTKQTARKSTGGKAPRKQ (A R T K Q T A R Kme2 pS T G G K A P R K Q),0.00333
11,[pS]GRGK(Ac)QGGKARAK(Ac)AKSRSS,0.0148
12,ARTKQTARKSTGGKAPRKQ (A Rme2a T Kme3 Q T A R K S T G G K A P R K Q),0.00259
13,ARTK(Me)QTARKSTGGKAPRKQ,0.00185
14,PDPAKSAPAPKKGSKKAVT (not fully specified),0.00074
15,PRKQLATKAARK(Me)SAPATGG,0.00333
16,A[Arg(Me2s)][pT]K(Ac)QTARKSTGGKAPRKQ,0.00333
17,AR(Me2a)TK(Me2)QTARKSTGGKAPRKQ (reading uncertain),0.0037
18,ARTKQTARKSTGGKAPRKQ (A Rme2a T Kme1 Q T A Rme2s Kme3 S T G G K A P R K Q),0.00629
19,SGRGKGGKGLGKGGAKRHR (S G R G Kac G G Kac G L G K G G A K R H R),0.0326
20,[pS]GRGKQGGKARAKAKSRSS,0.00592

row,Binder,binding score
1,PRKQLATKAARK(Ac)SAPATGG,0.0307
2,ARTKQTARKSTGGKAPRKQ (A R T K Q T A R Kme1 S pT G G K A P R K Q),0.0037
3,AR[pT]K(Ac)QTARKSTGGKAPRKQ,0.00333
4,SGRGKGGKGLGKGGAKRHR (pS G Rme2a G Kac G G K G L G K G G A K R H R),0.00444
5,PDPAKSAPAPKKGSK(Ac)KAVT,0.00481
6,PRKQLATKAAR(Me2a)K(Me2)[pS]APATGG (reading uncertain),0.00555
7,PRKQLATKAAR(Me2s)K(Me2)[pS]APATGG,0.00074
8,ARTKQTARKSTGGKAPRKQ (A R T K Q T A R Kme3 S pT G G K A P R K Q),0.0037
9,PRKQLATKAA[Arg(Me2a)]KSAPATGG,0.00148
10,ARTKQTARKSTGGKAPRKQ (A R T K Q T A Rme2s Kme2 pS T G G K A P R K Q),0.00333
11,AR[pT]K(Me)QTARKSTGGKAPRKQ,0.00296
12,ARTKQTARKSTGGKAPRKQ (A R T Kme1 Q T A Rme2a Kme3 S T G G K A P R K Q),0.00333
13,ARTKQTARKSTGGKAPRKQ (A Rme2a T Kme2 Q T A Rme2a Kme2 S T G G K A P R K Q),0.00555
14,PRKQLATKAA[Arg(Me2s)]K(Ac)[pS]APATGG,0.00629
15,SGRGKGGKGLGKGGAKRHR (S G R G K G G Kac G L G Kac G G A K R H R),0.0418
16,RKSAPATGGVKKPHRYRPG (R K S A P A T G G V Kme1 K P H R Y R P G) [H3 26-45],0.00481
17,ARTKQTARKSTGGKAPRKQ (A Rme2a T Kme3 Q T A Rme2s Kme1 S T G G K A P R K Q),0.00407
18,A[Arg(Me2a)]TK(Ac)QTA[Arg(Me2s)][Lys(Me3)]STGGKAPRKQ,0.0122
19,ARTKQTARKSTGGKAPRKQ (A Rme2s T Kac Q T A Rme2s Kme1 S T G G K A P R K Q),0.00407

# Molecular target: T2, CaBdf1 BD1 (GST-tagged, wild-type)
# Assay: as above
row,Binder,binding score
1,ART[Kac]QTA[Arg(Me2a)][Lys(Me2)]STGGKAPRKQ,0.00761
2,PRKQLATKAARKSAPATGG (P R K Q L A T K A A Rme2a Kme2 S A P A T G G),0.00363
3,ARTKQTARKSTGGKAPRKQ (A R T K Q T A R Kme3 S T G G K A P R K Q),0.0029
4,PDPAK(Ac)SAPAPKKGSK(Ac)KAVT,0.0323
5,ARTK(Me)QTAR(me2a)K(Me)STGGKAPRKQ (reading uncertain),0.00508
6,SGRGKGGKGLGKGGAKRHR (pS G Rme2s G Kac G G Kac G L G K G G A K R H R),0.054
7,PDPAK(Ac)SAPAPKK(Ac)G[pS]K(Ac)KAVT,0.0982
8,ARTKQTARKSTGGKAPRKQ (A Rme2s T Kme2 Q T A Rme2s K S T G G K A P R K Q),0.00181
9,ARTKQTARKSTGGKAPRKQ (A Rme2a T Kme1 Q T A Rme2s Kme2 S T G G K A P R K Q),0.00218
10,ARTKQTARKSTGGKAPRKQ (A R T K Q T A R Kme2 pS T G G K A P R K Q),0.00326
11,[pS]GRGK(Ac)QGGKARAK(Ac)AKSRSS,0.0964
12,ARTKQTARKSTGGKAPRKQ (A Rme2a T Kme3 Q T A R K S T G G K A P R K Q),0.0109
13,ARTK(Me)QTARKSTGGKAPRKQ,0.000725
14,PDPAKSAPAPKKGSKKAVT (not fully specified),0.00435
15,PRKQLATKAARK(Me)SAPATGG,0.00798
16,A[Arg(Me2s)][pT]K(Ac)QTARKSTGGKAPRKQ,0.00761
17,AR(Me2a)TK(Me2)QTARKSTGGKAPRKQ (reading uncertain),0.00109
18,ARTKQTARKSTGGKAPRKQ (A Rme2a T Kme1 Q T A Rme2s Kme3 S T G G K A P R K Q),0.00471
19,SGRGKGGKGLGKGGAKRHR (S G R G Kac G G Kac G L G K G G A K R H R),0.0294
20,[pS]GRGKQGGKARAKAKSRSS,0.0131

row,Binder,binding score
1,PRKQLATKAARK(Ac)SAPATGG,0.0138
2,ARTKQTARKSTGGKAPRKQ (A R T K Q T A R Kme1 S pT G G K A P R K Q),0.00326
3,AR[pT]K(Ac)QTARKSTGGKAPRKQ,0.00725
4,SGRGKGGKGLGKGGAKRHR (pS G Rme2a G Kac G G K G L G K G G A K R H R),0.0105
5,PDPAKSAPAPKKGSK(Ac)KAVT,0.0199
6,PRKQLATKAAR(Me2a)K(Me2)[pS]APATGG (reading uncertain),0.00145
7,PRKQLATKAAR(Me2s)K(Me2)[pS]APATGG,0.00363
8,ARTKQTARKSTGGKAPRKQ (A R T K Q T A R Kme3 S pT G G K A P R K Q),0.00363
9,PRKQLATKAA[Arg(Me2a)]KSAPATGG,0.00326
10,ARTKQTARKSTGGKAPRKQ (A R T K Q T A Rme2s Kme2 pS T G G K A P R K Q),0.00363
11,AR[pT]K(Me)QTARKSTGGKAPRKQ,0.00471
12,ARTKQTARKSTGGKAPRKQ (A R T Kme1 Q T A Rme2a Kme3 S T G G K A P R K Q),0.00254
13,ARTKQTARKSTGGKAPRKQ (A Rme2a T Kme2 Q T A Rme2a Kme2 S T G G K A P R K Q),0.00399
14,PRKQLATKAA[Arg(Me2s)]K(Ac)[pS]APATGG,0.00145
15,SGRGKGGKGLGKGGAKRHR (S G R G K G G Kac G L G Kac G G A K R H R),0.0707
16,RKSAPATGGVKKPHRYRPG (R K S A P A T G G V Kme1 K P H R Y R P G) [H3 26-45],0.00616
17,ARTKQTARKSTGGKAPRKQ (A Rme2a T Kme3 Q T A Rme2s Kme1 S T G G K A P R K Q),0.00326
18,A[Arg(Me2a)]TK(Ac)QTA[Arg(Me2s)][Lys(Me3)]STGGKAPRKQ,0.00653
19,ARTKQTARKSTGGKAPRKQ (A Rme2s T Kac Q T A Rme2s Kme1 S T G G K A P R K Q),0.00653
